Measured values reported in patent US10780117.

Target: Myc-tagged CRT expressed in J774 cells
Sequence (P27797 18-417): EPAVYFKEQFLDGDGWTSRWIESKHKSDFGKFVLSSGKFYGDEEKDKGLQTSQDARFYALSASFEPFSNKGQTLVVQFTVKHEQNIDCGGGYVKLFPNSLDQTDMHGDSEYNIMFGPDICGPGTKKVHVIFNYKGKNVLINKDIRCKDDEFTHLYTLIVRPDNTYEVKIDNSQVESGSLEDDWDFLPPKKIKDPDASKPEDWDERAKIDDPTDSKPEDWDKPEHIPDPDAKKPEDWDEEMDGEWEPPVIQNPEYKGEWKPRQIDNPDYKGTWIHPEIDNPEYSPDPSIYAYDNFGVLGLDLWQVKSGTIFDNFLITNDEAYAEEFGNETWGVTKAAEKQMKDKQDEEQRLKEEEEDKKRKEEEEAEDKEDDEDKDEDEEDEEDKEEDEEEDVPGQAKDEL

B1: Bruton's tyrosine kinase (Btk) in J774 mouse macrophage cells (protein)
chain: AAVILESIFLKRSQQKKKTSPLNFKKRLFLLTVHKLSYYEYDFERGRRGSKKGSIDVEKITCVETVIPEKNPPPERQIPRRGEESSEMEQISIIERFPYPFQVVYDEGPLYVFSPTEELRKRWIHQLKNVIRYNSDLVQKYHPCFWIDGQYLCCSQTAKNAMGCQILENRNGSLKPGSSHRKTKKPLPPTPEEDQILKKPLPPEPTAAPISTTELKKVVALYDYMPMNANDLQLRKGEEYFILEESNLPWWRARDKNGQEGYIPSNYITEAEDSIEMYEWYSKHMTRSQAEQLLKQEGKEGGFIVRDSSKAGKYTVSVFAKSTGEPQGVIRHYVVCSTPQSQYYLAEKHLFSTIPELINYHQHNSAGLISRLKYPVSKQNKNAPSTAGLGYGSWEIDPKDLTFLKELGTGQFGVVKYGKWRGQYDVAIKMIREGSMSEDEFIEEAKVMMNLSHEKLVQLYGVCTKQRPIFIITEYMANGCLLNYLREMRHRFQTQQLLEMCKDVCEAMEYLESKQFLHRDLAARNCLVNDQGVVKVSDFGLSRYVLDDEYTSSVGSKFPVRWSPPEVLMYSKFSSKSDIWAFGVLMWEIYSLGKMPYERFTNSETAEHIAQGLRLYRPHLASERVYTIMYSCWHEKADERPSFKILLSNILDVMDEES
- tyrosine phosphorylation of immunoprecipitated myc-CRT (immunoblot with anti-phosphotyrosine antibody): Immunoblot showing CRT phosphorylation upon Btk activation
